Laboratory results taken from patent publication US20240067706A1 (published 2024).

Experiments:
Assay in all cases: BLI
[1] = target: SARS-CoV-2 S protein (full-length S protein, soluble, purified in vitro) (SARS-CoV-2, UniProt P0DTC2 16-1213)
[2] = target: T1, MERS-CoV S protein (soluble, purified in vitro) (MERS-CoV, UniProt K9N5Q8 18-1297)
T1 chain: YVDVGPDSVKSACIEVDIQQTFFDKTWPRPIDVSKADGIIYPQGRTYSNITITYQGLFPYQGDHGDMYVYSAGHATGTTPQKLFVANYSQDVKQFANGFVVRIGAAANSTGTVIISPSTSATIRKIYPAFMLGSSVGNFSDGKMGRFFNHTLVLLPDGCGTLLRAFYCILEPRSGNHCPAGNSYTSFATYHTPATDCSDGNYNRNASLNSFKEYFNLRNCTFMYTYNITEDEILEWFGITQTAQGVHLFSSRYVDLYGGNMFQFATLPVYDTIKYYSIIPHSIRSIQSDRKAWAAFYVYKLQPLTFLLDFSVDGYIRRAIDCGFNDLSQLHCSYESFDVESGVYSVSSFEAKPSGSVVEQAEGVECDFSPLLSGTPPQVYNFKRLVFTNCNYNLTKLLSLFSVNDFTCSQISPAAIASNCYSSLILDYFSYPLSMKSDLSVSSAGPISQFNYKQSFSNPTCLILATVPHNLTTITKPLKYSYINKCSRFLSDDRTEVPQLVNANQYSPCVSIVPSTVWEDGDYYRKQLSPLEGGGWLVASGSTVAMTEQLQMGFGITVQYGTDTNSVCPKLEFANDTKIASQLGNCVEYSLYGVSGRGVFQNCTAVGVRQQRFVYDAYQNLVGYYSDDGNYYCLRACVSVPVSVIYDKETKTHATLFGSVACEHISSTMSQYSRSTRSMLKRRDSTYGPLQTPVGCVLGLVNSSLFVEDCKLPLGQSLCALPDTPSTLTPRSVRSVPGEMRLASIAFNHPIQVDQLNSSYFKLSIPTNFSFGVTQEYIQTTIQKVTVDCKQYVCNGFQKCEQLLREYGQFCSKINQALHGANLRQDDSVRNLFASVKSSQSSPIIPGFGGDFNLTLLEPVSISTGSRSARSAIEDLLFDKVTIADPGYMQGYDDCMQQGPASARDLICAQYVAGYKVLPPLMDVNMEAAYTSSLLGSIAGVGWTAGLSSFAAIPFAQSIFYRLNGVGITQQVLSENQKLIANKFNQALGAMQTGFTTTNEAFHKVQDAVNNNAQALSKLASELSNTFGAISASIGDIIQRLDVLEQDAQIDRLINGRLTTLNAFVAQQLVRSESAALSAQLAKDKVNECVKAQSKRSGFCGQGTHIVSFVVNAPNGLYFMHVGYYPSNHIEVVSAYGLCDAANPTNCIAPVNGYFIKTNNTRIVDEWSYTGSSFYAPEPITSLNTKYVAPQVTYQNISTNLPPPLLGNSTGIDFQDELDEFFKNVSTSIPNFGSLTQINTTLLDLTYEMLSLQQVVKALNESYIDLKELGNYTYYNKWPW

[3] = target: SARS-CoV S protein (soluble, purified in vitro) (SARS-CoV, UniProt P59594 14-1195)

B1: fully human monoclonal antibody 76E1 (antibody, V domains shown)
VH: EVQLVESGGGVVQPGGSLRLSCEASGFSFKDYGMHWIRQTPGKGLEWISRISGDTRGTSYVDSVKGRFIVSRDNSRNSLFLQMNSLRSEDTALYYCAALVIVAAGDDFDLWGQGTVVTVSS
VL: QSALTQPLSVSGSPGQSVTISCTGSSSDIGSYNFVSWYRQYPGKAPKVMIYEVNKRPSGVPVRFSGSKSGNTASLTVSGLQHEDEADYYCCSYGGRNNLIFGGGTKLTVL
For B1, the Kd [1] was 0.431 nM, the Kd [2] was 1.03 nM and the Kd [3] was 0.107 nM.
